Patent US20230340147A1 (published 2023)
Where “and” joins values, the source holds several entries; their conditions need not be identical. Equal entries are not always repeated. Ends that are not written are not given here. * marks the point of attachment. G0F = octasaccharide N-glycan with alpha-1,6 core fucose (Formula Ib, linkages Formula Ic), CC(=O)N[C@@H]1[C@@H](O)[C@H](O[C@@H]2O[C@H](CO)[C@@H](O[C@@H]3O[C@H](CO[C@H]4O[C@H](CO)[C@@H](O)[C@H](O)[C@@H]4O[C@@H]4O[C@H](CO)[C@@H](O)[C@H](O)[C@H]4NC(C)=O)[C@@H](O)[C@H](O[C@H]4O[C@H](CO)[C@@H](O)[C@H](O)[C@@H]4O[C@@H]4O[C@H](CO)[C@@H](O)[C@H](O)[C@H]4NC(C)=O)[C@@H]3O)[C@H](O)[C@H]2NC(C)=O)[C@@H](CO[C@@H]2O[C@@H](C)[C@@H](O)[C@@H](O)[C@@H]2O)O[C@H]1*

T1: PSA(67-79)-G0F (human, also: Asn3 N-glycosylated with octasaccharide carrying alpha-1,6 core fucose (G0F))
T1 construct: Synthetic glycopeptide (3.9 kDa as SPR analyte), made on Sieber Amide resin; For the ELISAs a biotinylated form was used (glutamic acid derivative with a PEG3-biotin side chain at the N-terminus); also called PSA(67-79)-GOF; glycopeptide of Formula Ib
T1 peptide: IRN(G0F)KSVILLGRHS-NH2

T2: Fucosylated PSA disaccharide glycopeptide (DP) (human, not fully specified (residue 3, C-terminus))
T2 construct: also called glycopeptide of Formula IV
T2 peptide: IRNKSVILLGRHS


How the values were obtained:
[1] = biological target: PSA in formalin-fixed, paraffin-embedded (FFPE) prostate tissue (human) (UniProt P07288); test: IHC on FFPE tumor tissue array (Tour of Tumor), prostate core
PSA(67-79)-G0F [2] = biological target: T1, PSA(67-79)-G0F; test: SPR, Biacore 8k, 37 C, antibody captured by anti-rabbit Fc, peptide as analyte
Method: (§1) 30 μg/ml of a Fcγ-fragment binding, polyclonal goat anti-Rabbit IgG (GARb-Fcγ, Jackson Laboratories) in 10 mM sodium acetate buffer (pH 4.5) was pre-concentrated in all 16 flow cells, and up to 10000 RU GARb-Fcγ were immobilized according to the manufacturer's instructions using EDC/NHS chemistry. Rabbit IgG antibody (150 kDa) containing rabbit B-cell primary cell culture supernatants were diluted three-fold with sample buffer and were captured for 2 min under a flow rate of 5 μl/min on 8 sample flow cells. The antibody Capture Level (CL) was quantified in response units (RU) for each antibody.
(§2) The non fucosylated peptide analyte PSA(67-79)-G2 (3.7 kDa) and the fucosylated peptide analyte PSA(67-79)-GOF (3.9 kDa) were diluted in sample buffer in concentration series of 0 nM (buffer), 11 nM, 33 nM, 100 nM, 300 nM, and 900 nM. The 100 nM analyte samples were injected twice as control. The analytes were injected at 30 μl/min for 3 min association time. After the association phase of the 900 nM analyte injection a report point (Binding Late) was set to quantify the signal response at antibody ligand saturation. The antibody antigen dissociation was monitored for 5 min. The GARb-Fcγ antibody capture system was regenerated by injection of 10 mM glycine pH 2 at 30 μl/min for 1 min, followed by two consecutive 1 min injections of 10 mM glycine pH 2.25 at 30 μl/min. Overlay plots of concentration dependent antigen binding were generated and kinetic rates were determined with the Biacore 8k evaluation software using a Langmuir fitting model with RMAX local. The antibody/antigen complex half-life was calculated in minutes according to the formula t_{1/2 diss}=ln(2)/60*kd.
Molar Ratio (MR) indicating antibody-antigen binding stoichiometry was also determined and calculated as MR=(analyte Binding Late (RU)/antibody Capture Level (RU)) x (MW(antibody)/MW (analyte)).

PSA(67-79)-G0F [3] = biological target: T1, PSA(67-79)-G0F; test: Hit-ELISA, biotinylated peptide on streptavidin plate, supernatant of recombinant expression
Method: Subsequently Hit-ELISA (i.e. ELISAs testing the binding to the screening agents) was used to identify B-cells expressing antibodies having desired binding characteristics, i.e. binding the PSA(67-79)-GOF peptide and capable of discriminating from PSA(67-79)-G2 and Asn-GOF. Biotinylated screening agents PSA(67-79)-GOF, PSA(67-79)-G2 and Asn-GOF were immobilized on the surface of streptavidin-coated 96-well plates (Nunc) by incubation of 100 μl per well of 100 ng/ml solutions for 60 min at room temperature, respectively. The plates were washed and 30 μl of rabbit B-cell culture supernatant was transferred to each well and incubated for 1 h at room temperature. For the detection of antibodies bound to the screening agents, HRP-labeled F(ab′)₂ goat anti-rabbit Fcγ (Dianova) and ABTS substrate solution (Roche) were used according to manufacturer's instructions. 16 clones were identified that bound to PSA(67-79)-GOF and discriminated from the negative screening agents according to the selected cut-offs (OD>0.6 in positive screening and <0.6 in negative screening). The 16 clones were selected for subsequent molecular cloning and recombinant expression as also described in Seeber et al., PLoS One 9(2014), issue 2, e86184. For 15 out of the 16 clones the sequences could be successfully cloned and the sequences encoding VH and VL could be unambiguously determined. The Hit-ELISA using the screening agents was then repeated with the supernatant of the recombinant expression and the more stringent cut-off criteria (OD>1 for positive screening agent and OD at/below average background signal for negative screening agents) were fulfilled for all 15 previously selected clones for which unambiguous VH and VL sequences were retrieved.

[4] = biological target: T2, Fucosylated PSA disaccharide …; test: IHC peptide inhibition, antibody pre-incubated with peptide
Method: FIG. 8. Inhibition of anti-1,6fucPSA antibody binding by fucosylated PSA disaccharide glycopeptide (DP) in IHC analysis of FFPE samples of prostate adenocarcinoma samples. From top to bottom rows, exemplary anti-1,6fucPSA antibodies, FIG. 8A: 2E9, 3B10, and 3H6 at 2.5 μg/ml, 2.5 μg/ml, and 2.5 μg/ml, respectively; FIG. 8B: 13C5, 2H9, and 2C11 at 3 μg/ml, 2.5 μg/ml, and 1 μg/ml, respectively. For FIG. 8A and FIG. 8B, antibodies were pre-incubated with, from left to right columns, PBS buffer (control) or DP at 5×10⁻⁹ M, 5×10⁻⁸ M, 5×10⁻⁷ M, 5×10⁻⁶ M, or 5×10⁻⁵ M.
To verify that anti-1,6fucPSA antibodies recognize specifically and selectively the core-fucosylated PSA epitope, staining specificity was tested by peptide inhibition analysis.

PSA(67-79)-G0F [5] = biological target: T1, PSA(67-79)-G0F; test: SPR, Biacore 8k, 37 C, antibody captured by anti-rabbit Fc, peptide as analyte, Langmuir fit
Method: as §1, §2

PSA(67-79)-G0F [6] = biological target: T1, PSA(67-79)-G0F; test: SPR, Biacore 8k, 37 C, antibody captured by anti-rabbit Fc, 900 nM peptide injection
Method: as §1, §2

Chain of PSA in formalin-fixed, paraffin-embedded (FFPE) prostate tissue (human) (P07288 25-261 limits assumed): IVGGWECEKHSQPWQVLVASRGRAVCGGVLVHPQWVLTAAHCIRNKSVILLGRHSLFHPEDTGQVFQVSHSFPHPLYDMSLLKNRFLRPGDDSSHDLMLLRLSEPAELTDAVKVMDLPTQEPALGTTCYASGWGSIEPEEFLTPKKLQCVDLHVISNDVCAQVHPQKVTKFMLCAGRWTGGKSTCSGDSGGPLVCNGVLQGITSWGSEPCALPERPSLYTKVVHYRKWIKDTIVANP

| Molecule | IHC staining intensity [1] | MR (Molar Ratio) (PSA(67-79)-G0F [2]) | OD (PSA(67-79)-G0F [3]) [OD] | peptide concentration giving complete inhibition [4] [µM] | Kd (PSA(67-79)-G0F [5]) [nM] | koff (PSA(67-79)-G0F [5]) [s⁻¹] | kon (PSA(67-79)-G0F [5]) [M⁻¹ s⁻¹] | t/2diss (PSA(67-79)-G0F [5]) [min] | BL (Binding Late) (PSA(67-79)-G0F [6]) [RU] |
| --- | --- | --- | --- | --- | --- | --- | --- | --- | --- |
| anti-PSA mouse monoclonal antibody ER-PR8 | 3 + and 3.5 + | – | – | – | – | – | – | – | – |
| 2E9 (antibody, V domains shown, Rabbit monoclonal IgG (150 kDa); also called anti-1,6fucPSA antibody 2E9) VH: QSLEESGGDLVKPGASLTLTCTASGFSFSAGYDMCWVRQAPGKGLEWIACIYADGSGSTYYANWAKGRFTISLASSTTVTLQMTGLTAADTATYFCAREGADGPDYGYAAFSLWGPGTLVTVSS VL: DVVMTQTPASVEAAVGGTVTIKCQASQSISNYFSWYQQKPGQPPKLLIYKASTLASGVPSRFKGSGSGTEFTLTISDLECADAATYYCQSFYGSVTSDYGGFAFGGGTEVVVK | 3.5 + and 3.25 + | 2 | > 1 | 5 | 0.6 | 0.00112 | 1.75e+06 | 10 | 27 |
| 2C11 (antibody, V domains shown, Rabbit monoclonal IgG (150 kDa); also called anti-1,6fucPSA antibody 2C11) VH: QSLEESGGGLVKPGGTLTLTCKASGFSFGPGYDMCWVRQAPGKGLEWIACIYADGSDNTYYASWARGRFTISKTSSTTVTLQMTRLTAADTATYFCAREGADNPNYGYAALRLWGPGTLVTVSS VL: DIVMTQTPASVEAPVGGTVTIKCQASESISSYLAWYQQKPGQPPKLLIYKTSTLASGVPSRFKGSGSGTEFTLTISDLECANAATYYCQSFYGSVSSDYGGFAFGGGTEVVVK | 3 + and 2.5 + | 1 | > 1 | 5 | 1 | 0.00078 | 779000 | 15 | 53 |
| 3B10 (antibody, V domains shown, Rabbit monoclonal IgG (150 kDa); also called anti-1,6fucPSA antibody 3B10) VH: QSLEESGGGLVKPGGTLTLTCKASGFSFSSGYDMCWVRQAPGKGLEWIACIYADGSDNTYYASWAKGRFTISKTSSTTVTLQMTRLTAADTATYFCAREGADNPNYGYAALRLWGPGTLVTVSS VL: DIVMTQTPASVEAPVGGTVTIKCQATQSISSYLSWYQQKPGQPPKLLIYKTSTLASGVPSRFKGSGSGTEFTLTISDLECANAATYYCQSYYGSISSDYGGFAFGGGTEVVVK | 3 + and 2.5 + | 1 | > 1 | 5 | 11 | 0.0121 | 1.14e+06 | 1 | 31 |

Continued by falling Kd (PSA(67-79)-G0F [5]), values first:

| IHC staining intensity [1] | MR (Molar Ratio) (PSA(67-79)-G0F [2]) | OD (PSA(67-79)-G0F [3]) [OD] | peptide concentration giving complete inhibition [4] [µM] | Kd (PSA(67-79)-G0F [5]) [nM] | koff (PSA(67-79)-G0F [5]) [s⁻¹] | kon (PSA(67-79)-G0F [5]) [M⁻¹ s⁻¹] | t/2diss (PSA(67-79)-G0F [5]) [min] | BL (Binding Late) (PSA(67-79)-G0F [6]) [RU] | Molecule |
| --- | --- | --- | --- | --- | --- | --- | --- | --- | --- |
| 3.25 + and 3 + | 1 | > 1 | 5 | 4 | 0.00536 | 1.52e+06 | 2 | 25 | 3H6 (antibody, V domains shown, Rabbit monoclonal IgG (150 kDa); also called anti-1,6fucPSA antibody 3H6) VH: QSLEESGGDLVKPGASLTLTCTASGFSFSSGYDMCWVRQAPGKGLEWIACIYADGSGSTYYASWAKGRFTISKPSSTTVTLQMTRLTAADTATYFCAREGADGPDYGYAAFSLWGPGTLVTVSS VL: DIVMTQTPASVEAAVGGTVTIKCQASQTISSYFSWYQQKPGQPPKLLIYKASSLASGVPSRFKGSGSGTQFTLTISDLECADAATYYCQSFYGSVSSDVGGFAFGGGTEVVVK |
| 3 + and 2.75 + | 2 | > 1 | 5 | 2 | 0.00105 | 578000 | 11 | 54 | 2H9 (antibody, V domains shown, Rabbit monoclonal IgG (150 kDa); also called anti-1,6fucPSA antibody 2H9) VH: QSLEESGGDLVKPGASLTLTCTASGFSFSSGYDMCWVRQAPGKGPEWIACIYADGSGSTYYASWAKGRFTISMTSSTTVTLQMTRLTAADTATYFCAREGADDPNYGYAALRLWGPGTLVTVSS VL: DIVMTQTPASVEAAVGGTVTIKCQASQSISNYLAWYQQKPGQPPKLLIYKTSTLASGVPSRFKGSGSGTEFTLTISDLECADAATYYCQSFYGSVSSDYGGFAFGGGTEVVVK |
| 3.5 + and 3 + | 2 | > 1 | 5 | 0.4 | 0.00038 | 981000 | 31 | 29 | 13C5 (antibody, V domains shown, Rabbit monoclonal IgG (150 kDa); also called anti-1,6fucPSA antibody 13C5) VH: QSLEESGGDLVKPGASLTLTCTASGFSFSSGYDMCWVRQAPGKGLEWIGCIYADGSGTTYYATWAKGRFTISNPSATTVTLQMTRLTAADTATYFCAREGADNPNYGYAALRLWGPGTLVTVSS VL: DIVMTQTPASVSGAVGGTITIKCQASQSISNYFSWYQQKPGQPPKLLIYKTSTLASGVPSRFKGSGSGTEFTLTISDLECADAATYYCQSFWGSGSSDYGGFAFGGGTEVVVK |
